T1: Quiescin-sulfhydryl oxidase (QSOX), recombinant human (human, UniProt O00391 30-709)
T1 construct: also called Human Qsox; recombinant QSOX
T1 sequence (looked up): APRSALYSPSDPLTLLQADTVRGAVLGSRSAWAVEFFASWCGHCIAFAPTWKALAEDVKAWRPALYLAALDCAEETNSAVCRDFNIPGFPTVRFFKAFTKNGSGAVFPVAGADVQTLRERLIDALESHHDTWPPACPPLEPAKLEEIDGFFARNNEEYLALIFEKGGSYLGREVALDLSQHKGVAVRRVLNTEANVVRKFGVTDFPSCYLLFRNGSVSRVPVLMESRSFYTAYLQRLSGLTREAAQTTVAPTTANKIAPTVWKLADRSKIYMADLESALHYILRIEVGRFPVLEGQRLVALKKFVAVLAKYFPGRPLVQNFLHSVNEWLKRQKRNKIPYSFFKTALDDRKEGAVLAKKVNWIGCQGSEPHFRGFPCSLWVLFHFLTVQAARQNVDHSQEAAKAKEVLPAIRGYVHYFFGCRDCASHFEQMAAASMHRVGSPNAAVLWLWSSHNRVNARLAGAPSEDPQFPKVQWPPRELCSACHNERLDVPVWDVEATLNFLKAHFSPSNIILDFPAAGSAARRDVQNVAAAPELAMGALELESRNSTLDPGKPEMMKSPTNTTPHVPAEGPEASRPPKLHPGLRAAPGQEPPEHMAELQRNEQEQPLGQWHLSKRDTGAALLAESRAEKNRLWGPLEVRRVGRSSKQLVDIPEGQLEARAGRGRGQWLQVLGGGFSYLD


Molecular target: T1, Quiescin-sulfhydryl oxidase (QSOX), …
Assay: SPR; Biacore 3000; […]; 30 ul/min in PBS, 0.05% Tween 20, 3 mM EDTA at 25°C; 1:1 Langmuir model; […]
Conditions: both partners purified

Binder | Kd [nM] | koff [s⁻¹] | kon [M⁻¹ s⁻¹]
recombinant full-length human PrP, HuPrP(23-231) (natural protein) not shown | 1.7 | 2e-05 | 11800
recombinant full-length mouse PrP, MoPrP(23-230) (natural protein, also called full-length moPrP (PrP23-231, in the abstract)) not shown | 2 | 6.81e-05 | 33400
